From US20260248969A1, “PEPTIDE MULTIMER PRODUCTS AND METHODS” (REGENTS OF THE UNIVERSITY OF MICHIGAN, priority 2023, published 2026)
Entries after “also recorded” stand apart in the source; their conditions may differ. Blank lines part the entries; values can stand above or below the substance they belong to. No end group written: not given here.

Legend:
GPC3 [1] = target: T1, GPC3 (Homo sapiens, UniProt P51654); experiment: Co-localization of labeled multimer and anti-GPC3 antibody binding to HCC patient-derived organoids (PDOs); conditions: merged images
T1 construct: from tissue; host or cells: human HCC patient-derived xenograft tumor grown orthotopically in NSG mouse liver
T1 sequence (P51654 25-554): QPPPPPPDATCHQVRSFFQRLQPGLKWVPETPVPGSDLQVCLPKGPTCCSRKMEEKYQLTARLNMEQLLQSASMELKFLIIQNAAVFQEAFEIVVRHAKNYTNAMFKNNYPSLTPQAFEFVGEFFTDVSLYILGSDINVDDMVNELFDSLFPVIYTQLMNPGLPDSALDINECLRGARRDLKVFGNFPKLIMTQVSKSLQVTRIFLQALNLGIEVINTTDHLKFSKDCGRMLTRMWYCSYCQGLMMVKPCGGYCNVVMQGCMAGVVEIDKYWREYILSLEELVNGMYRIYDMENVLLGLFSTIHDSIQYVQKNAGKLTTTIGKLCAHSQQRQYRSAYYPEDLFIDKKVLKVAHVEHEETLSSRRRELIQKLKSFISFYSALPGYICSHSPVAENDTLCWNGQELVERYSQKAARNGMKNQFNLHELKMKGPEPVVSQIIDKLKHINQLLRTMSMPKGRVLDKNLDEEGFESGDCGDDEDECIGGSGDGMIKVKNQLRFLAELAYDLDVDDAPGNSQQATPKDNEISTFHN
Procedure: (§1) PDOs were established from human HCC specimens. These immortalized human tissues provided clinically relevant target expression levels and genetic heterogeneity seen in the HCC patient population. Short tandem repeat analysis was performed to authenticate human genomic expression and characterize genetic variations. Images collected using the candidate IRDye800-labeled multimer, AF488-labeled monoclonal antibodies specific for GPC3, CD44, and EpCAM, and merged are shown, FIG. 2A-C. Strong fluorescence intensity can be seen at the cell surface (arrows). Multimer and antibody co-localization was measured using correlation analysis.
(§2) For a co-localization assay, patient-derived organoids were recovered from Matrigel and fixed by 4% PFA for 30 min. Permeabilization and blocking were performed using 5% serum (v/v) and 1% Triton X-100 (v/v) in PBS for 3 hours at room temperature. Organoids were then incubated with 1:200 dilution of primary recombinant rabbit anti-GPC3 antibody (#ab95363, Abcam), 1:500 dilution of primary recombinant mouse anti-CD44 antibody (#3570, Cell Signaling Technology), and AF594-labeled primary anti-EpCAM (#7319, Cell Signaling Technology) at 4° C. overnight. […] Confocal fluorescence images were obtained on Leica Stellaris 5 (inverted) confocal microscope using a 63X oil-immersion objective. Fluorescence intensities were quantified using Leica LAS AF Lite software.

EpCAM [2] = target: T2, EpCAM (Homo sapiens, UniProt P16422); experiment: Co-localization of multimer and anti-EpCAM-AF594 on human liver tissue microarray; format: binding
T2 construct: from tissue; host or cells: human HCC patient-derived xenograft tumor grown orthotopically in NSG mouse liver
T2 sequence (P16422 24-314): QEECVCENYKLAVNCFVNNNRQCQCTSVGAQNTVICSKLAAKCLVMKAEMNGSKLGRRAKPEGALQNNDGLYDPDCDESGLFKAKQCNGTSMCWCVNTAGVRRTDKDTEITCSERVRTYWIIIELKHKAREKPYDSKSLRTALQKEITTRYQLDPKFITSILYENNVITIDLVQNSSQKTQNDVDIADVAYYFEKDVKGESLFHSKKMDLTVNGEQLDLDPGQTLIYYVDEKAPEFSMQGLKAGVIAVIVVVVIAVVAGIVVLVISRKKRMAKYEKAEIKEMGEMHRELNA
Procedure: (§3) Binding of Cy5.5-labeled peptide multimer was evaluated using human HCC specimens ex vivo. All experiments using human tissues were approved by the Michigan Medicine IRB (HUM00122873). A tissue microarray (TMA) was generated from n=120 liver specimens provided by the archived tissue bank in the Department of Pathology. Paraffin-embedded (FFPE) section slide was deparaffinized and conducted through antigen retrieval. Blocking procedure was performed with 5% goat serum for 1 hour at room temperature. The slide was first stained with the Cy5.5 labeled peptide multimer at 5 μM for 5 min at room temperature. The section was then incubated with primary antibodies using 1:200 dilution of primary recombinant rabbit anti-GPC3 antibody (#ab95363, Abcam), 1:500 dilution of primary recombinant mouse anti-CD44 antibody (#3570, Cell Signaling Technology), and AF594-labeled primary anti-EpCAM (#7319, Cell Signaling Technology) overnight at 4° C. After washing with 2% BSA in PBST, section was incubated with 1:500 dilution of AF488-labeled secondary goat anti-mouse IgG antibody (#ab150113, Abcam) and 1:500 dilution of AF532-labeled secondary goat anti-rabbit IgG antibody (#A-11029, Life Technologies) for 1 hour at room temperature, and mounted with Prolong Gold reagent containing DAPI at last (Invitrogen). The fluorescence images were collected using Leica Stellaris 5 (inverted), excitation at Aex=670 nm for the peptide multimer, and λex=488, 532, 594 nm for CD44, GPC3 and EpCAM antibody, respectively. Fluorescence intensities were quantified using Leica LAS AF Lite software. All slides were evaluated by an expert liver pathologist.

CD44 [3] = experiment: Co-localization of labeled multimer and anti-CD44 antibody binding to HCC patient-derived organoids (PDOs); set-up: species or system human; conditions: merged images
Procedure: as §1, §2

human liver specimens = experiment: Multimer staining of human liver specimens ex vivo (tissue microarray), fluorescence intensity and ROC
Procedure: as §3

GPC3 [4] = target: T1, GPC3; experiment: Co-localization of labeled multimer and anti-GPC3 antibody on resected human HCC PDX tumor specimen; format: binding; conditions: merged image
Source text: (§4) After completion of in vivo imaging, specific multimer binding to the PDX HCC tumor was validated ex vivo using confocal microscopy. These studies confirmed the in vivo imaging results and expression of the expected targets ex vivo. Increased fluorescence intensity is seen at the cell surface (arrow) for the IRDye800-labeled multimer binding to HCC tumor, FIG. 8A. Adjacent sections were stained with antibodies specific for GPC3, CD44, and EpCAM, FIG. 8B-D. Co-localization of multimer and antibody binding is shown on the merged image, FIG. 8E. A correlation of ρ=0.69, 0.65, and 0.70 was measured to characterize binding co-localization by the multimer with the GPC3, CD44, and EpCAM antibodies, respectively.
(§5) Orthotopic HCC PDX tumors were resected and sectioned for immunofluorescence.

CD44 [5] = target: T3, CD44 (Homo sapiens, UniProt P16070); experiment: Co-localization of labeled multimer and anti-CD44 antibody on resected human HCC PDX tumor specimen; format: binding; conditions: merged image
T3 construct: from tissue; host or cells: human HCC patient-derived xenograft tumor grown orthotopically in NSG mouse liver
T3 sequence (P16070 21-742): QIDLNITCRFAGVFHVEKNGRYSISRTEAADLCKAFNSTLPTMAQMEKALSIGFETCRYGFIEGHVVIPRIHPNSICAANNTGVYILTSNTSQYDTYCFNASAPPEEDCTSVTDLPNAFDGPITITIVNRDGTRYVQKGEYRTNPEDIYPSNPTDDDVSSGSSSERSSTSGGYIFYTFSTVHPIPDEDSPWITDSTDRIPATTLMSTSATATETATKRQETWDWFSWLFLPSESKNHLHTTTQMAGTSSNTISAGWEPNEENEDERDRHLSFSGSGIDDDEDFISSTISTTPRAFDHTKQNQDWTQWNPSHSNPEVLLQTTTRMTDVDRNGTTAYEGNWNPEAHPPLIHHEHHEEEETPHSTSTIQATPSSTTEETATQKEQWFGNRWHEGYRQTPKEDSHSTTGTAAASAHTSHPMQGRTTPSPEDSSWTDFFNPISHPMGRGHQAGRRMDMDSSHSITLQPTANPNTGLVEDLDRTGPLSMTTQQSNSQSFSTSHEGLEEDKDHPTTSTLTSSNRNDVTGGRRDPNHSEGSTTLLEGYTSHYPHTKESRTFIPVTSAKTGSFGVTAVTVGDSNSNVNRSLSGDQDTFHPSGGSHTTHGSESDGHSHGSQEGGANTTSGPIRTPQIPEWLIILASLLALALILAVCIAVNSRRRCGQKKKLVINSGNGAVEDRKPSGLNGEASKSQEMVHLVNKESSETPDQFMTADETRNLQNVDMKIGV
Source text: as §4, §5

human CCA-156 HCC cells = experiment: Binding of Cy5.5-labeled peptides to CCA-156 HCC cells, confocal fluorescence; format: cell-based; conditions: 5 μM, 5 min on ice
Procedure: HCC patient-derived cells (CCA-156) were generated from fresh, de novo tumor specimens obtained from patients undergoing liver transplant.
Fresh tissue was cut into ~1 mm^2 pieces in ice-cold DPBS. and 3-4 pieces were placed in one well of a 12-well plate. Minced tissue was cultured using Matrigel with growth media containing 10 μM ROCK inhibitor Y27632 (ATCC) and 5 μM TGF-β inhibitor (A83-01, Sigma-Aldrich) diluted to 8 mg/mL. An HCC cell line and a corresponding organoid were successfully generated. The cell line was denoted CCA-156 to reflect the specimen ID.
Approximately 10^3 CCA-156 cells were grown on the cover glass in a 24-well plate to ~90% confluence. The cells were washed with PBS twice and incubated with 5 μM of either Cy5.5-labeled peptide multimer or peptide monomer for 5 min on ice. The cells were then washed with PBS for 3X, fixed with 4% paraformaldehyde (PFA) in PBS for 15 min, washed with PBS for twice, then mounted on glass slides with ProLong Gold reagent containing DAPI (Invitrogen).

GPC3 [6] = target: T1, GPC3; experiment: Co-localization of multimer and anti-GPC3-AF532 on human liver tissue microarray; format: binding
Procedure: as §3

EpCAM [7] = target: T2, EpCAM; experiment: Co-localization of labeled multimer and anti-EpCAM antibody on resected human HCC PDX tumor specimen; format: binding; conditions: merged image
Source text: as §4, §5

EpCAM [8] = target: T2, EpCAM; experiment: Co-localization of labeled multimer and anti-EpCAM antibody binding to HCC patient-derived organoids (PDOs); conditions: merged images
Procedure: as §1, §2

CD44 [9] = target: T3, CD44; experiment: Co-localization of multimer and anti-CD44-AF488 on human liver tissue microarray; format: binding
T3 sequence (P16070 21-222 limits assumed): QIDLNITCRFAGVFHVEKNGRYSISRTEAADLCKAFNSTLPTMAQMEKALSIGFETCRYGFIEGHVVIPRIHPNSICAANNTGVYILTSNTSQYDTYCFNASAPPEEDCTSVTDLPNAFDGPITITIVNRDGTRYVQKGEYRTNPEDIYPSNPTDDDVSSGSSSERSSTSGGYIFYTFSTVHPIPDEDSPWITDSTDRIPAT
Procedure: as §3

[10] = test system: orthotopic HCC PDX tumors; experiment: In vivo competition for binding (blocking before Gd-DOTA-labeled peptide multimer), MR imaging; set-up: species or system mouse; conditions: unlabeled blocker given prior to labeled multimer; 0.5 hour post-injection
Procedure: In vivo competition for binding to GPC3, CD44, and EpCAM was evaluated by administering unlabeled peptide monomers prior to Gd-DOTA labeled peptide multimer. Single unlabeled peptide monomers (ALL*, WKG*, and HPD*) at a concentration of 1.5 mM in 100 μL of PBS, or a mixture of all three peptide monomers (multi-block) at a concentration of 1 mM in 100 μL of PBS each were administered 30 minutes prior to the Gd-DOTA-labeled peptide multimer, FIG. 14A. T1-weighted MR images were collected at the peak uptake time of 0.5 hour after the peptide multimer injection. The T/B ratio of MR intensity was calculated using regions of interest, and the adjacent non-tumor region with equal area of the tumor region was defined as the background.

correlation of co-localization, multimer and GPC3 antibody (GPC3 [1]): 0.74 | Pearson's correlation coefficient, multimer and EpCAM antibody (EpCAM [2]; HCC): 0.81 | Pearson's correlation coefficient, multimer and EpCAM antibody (EpCAM [2]; adenoma): 0.83 | Pearson's correlation coefficient, multimer and EpCAM antibody (EpCAM [2]; cirrhosis): 0.66 | Pearson's correlation coefficient, multimer and EpCAM antibody (EpCAM [2]; normal liver): 0.83 | correlation of co-localization, multimer and CD44 antibody (CD44 [3]): 0.80 | Pearson's correlation coefficient, multimer with GPC3 antibody (GPC3 [4]): 0.69 | Pearson's correlation coefficient, multimer with CD44 antibody (CD44 [5]): 0.65 | Pearson's correlation coefficient, multimer and GPC3 antibody (GPC3 [6]; HCC): 0.76 | Pearson's correlation coefficient, multimer and GPC3 antibody (GPC3 [6]; adenoma): 0.82 | Pearson's correlation coefficient, multimer and GPC3 antibody (GPC3 [6]; cirrhosis): 0.69 | Pearson's correlation coefficient, multimer and GPC3 antibody (GPC3 [6]; normal liver): 0.74 | Pearson's correlation coefficient, multimer with EpCAM antibody (EpCAM [7]): 0.70 | correlation of co-localization, multimer and EpCAM antibody (EpCAM [8]): 0.75 | Pearson's correlation coefficient, multimer and CD44 antibody (CD44 [9]; HCC): 0.70 | Pearson's correlation coefficient, multimer and CD44 antibody (CD44 [9]; adenoma): 0.74 | Pearson's correlation coefficient, multimer and CD44 antibody (CD44 [9]; cirrhosis): 0.60 | Pearson's correlation coefficient, multimer and CD44 antibody (CD44 [9]; normal liver): 0.69
Substance: Cy5.5-labeled peptide multimer: peptide multimer of GPC3-, CD44- and EpCAM-specific peptides labeled with Cy5.5 (peptide 1 ALLANHEELFQT; peptide 2 WKGWSYLWTQQA; peptide 3 HPDMFTRTHSHN; not fully specified; also: peptide multimer, linkage not given here, Cy5.5 label, site not given here)
quantified fluorescence intensity, mean±SD (human liver specimens; HCC): 8.4±1.0 | quantified fluorescence intensity, mean±SD (human liver specimens; adenoma): 5.8±0.4 | quantified fluorescence intensity, mean±SD (human liver specimens; cirrhosis): 6.4+0.7 | fluorescence intensity for HCC versus cirrhosis, adenoma, and normal (human liver specimens; n=120 specimens): significantly greater | quantified fluorescence intensity, mean±SD (human liver specimens; normal): 6.4±0.4 | binding to cell surface of CCA-156 cells (fluorescence) (human CCA-156 HCC cells): Strong fluorescence signal; also recorded: strong binding

Substance: HPDMFTRTHSHN (EpCAM-specific peptide) [HPD*]
T/B ratio of Gd-DOTA-labeled peptide multimer after blocking [10]: reduced

Substance: WKGWSYLWTQQA (CD44-specific peptide) [WKG*]
T/B ratio of Gd-DOTA-labeled peptide multimer after blocking [10]: reduced

Substance: ALLANHEELFQT (GPC3-specific peptide) [ALL*]
T/B ratio of Gd-DOTA-labeled peptide multimer after blocking [10]: reduced

Substance: ALL*-Cy5.5: Cy5.5-labeled GPC3-specific peptide monomer ALLANHEELFQT (SEQ ID NO: 1) (also: Cy5.5 label, site not given here)
binding to cell surface of CCA-156 cells (fluorescence) (human CCA-156 HCC cells): minimal signal

Substance: HPD*-Cy5.5: Cy5.5-labeled EpCAM-specific peptide monomer HPDMFTRTHSHN (SEQ ID NO: 7) (also: Cy5.5 label, site not given here)
binding to cell surface of CCA-156 cells (fluorescence) (human CCA-156 HCC cells): minimal signal

Substance: WKG*-Cy5.5: Cy5.5-labeled CD44-specific peptide monomer WKGWSYLWTQQA (SEQ ID NO: 6) (also: Cy5.5 label, site not given here)
binding to cell surface of CCA-156 cells (fluorescence) (human CCA-156 HCC cells): minimal signal

correlation of co-localization, multimer and GPC3 antibody (GPC3 [1]): 0.74 | correlation of co-localization, multimer and CD44 antibody (CD44 [3]): 0.80 | Pearson's correlation coefficient, multimer with GPC3 antibody (GPC3 [4]): 0.69 | Pearson's correlation coefficient, multimer with CD44 antibody (CD44 [5]): 0.65 | Pearson's correlation coefficient, multimer with EpCAM antibody (EpCAM [7]): 0.70 | correlation of co-localization, multimer and EpCAM antibody (EpCAM [8]): 0.75
Substance: IRDye800-labeled multimer: GPC3-, CD44- and EpCAM-specific peptide monomers arranged via tri-lysine linker and PEG3 linkers, labeled with IRDye800 (peptide 1 ALLANHEELFQT; peptide 2 WKGWSYLWTQQA; peptide 3 HPDMFTRTHSHN; not fully specified; also: monomers arranged via tri-lysine linker and PEG3 linkers, IRDye800 label, site not given here)
